Results taken from patent publication US20240016892A1 (SHATTUCK LABS, published 2024).

Experiments:
[1] = target: T1, recombinant human PVR (human, UniProt P15151 21-343); assay: BLI (Octet-Red96), tagged rhPVR immobilised on biosensor
T1 construct: The tagged PVR of the BLI assay and the biotinylated PVR used as detector in MSD are treated as one molecule; also called rhPVR; CD155
T1 sequence (looked up): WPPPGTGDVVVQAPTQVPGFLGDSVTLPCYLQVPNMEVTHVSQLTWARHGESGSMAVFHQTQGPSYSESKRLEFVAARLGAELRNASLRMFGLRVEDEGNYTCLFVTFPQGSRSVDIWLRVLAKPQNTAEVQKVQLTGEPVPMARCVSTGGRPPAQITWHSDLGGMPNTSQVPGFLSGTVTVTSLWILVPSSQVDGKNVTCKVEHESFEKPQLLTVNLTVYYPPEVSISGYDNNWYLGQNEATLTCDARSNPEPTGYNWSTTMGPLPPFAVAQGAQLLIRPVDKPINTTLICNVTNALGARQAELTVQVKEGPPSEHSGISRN
Experimental: Bio-Layer interferometry-based affinity testing was used to determine the on-rates (Ka), off-rates (Kd) and binding affinities (KD) of the TIGIT-Fc-LIGHT chimeric protein to intended binding targets, using histidine- or biotin-tagged versions of the human recombinant proteins (PVR, HVEM, LTβR, PVRL2, PVRL3, and Nectin-4; purchased from Acro Biosystems or Sino Biological). Commercially available or internally produced single-sided fusion protein controls (TIGIT-Fc and Fc-LIGHT) were also tested in parallel. Targets were immobilized at a concentration of 3 μg/mL in Kinetics buffer (PBS/0.1% Tween-20/1% BSA; pH7.0) to anti-pentaHis or streptavidin coated biosensors. Direct binding of fusion proteins to recombinant target proteins was performed on an Octet-Red96 BLI instrument, using association and dissociation times of 90 and 120 seconds, respectively.
Protein-protein interactions (PPI) between the fusion proteins and their cognate binding partners were characterized using both recombinant protein and cell-based methods. First, bio-layer interferometry-based affinity testing was used to assess the kinetics of receptor/ligand binding.

[2] = target: T2, cell surface human PVR (CHO-K1/hPVR cells) (human, UniProt P15151 21-417); assay: flow cytometry, CHO-K1 cells stably expressing human PVR; cell surface PVR
T2 construct: whole, on cells; also called cell surface PVR; CD155(PVR)
T2 sequence (looked up): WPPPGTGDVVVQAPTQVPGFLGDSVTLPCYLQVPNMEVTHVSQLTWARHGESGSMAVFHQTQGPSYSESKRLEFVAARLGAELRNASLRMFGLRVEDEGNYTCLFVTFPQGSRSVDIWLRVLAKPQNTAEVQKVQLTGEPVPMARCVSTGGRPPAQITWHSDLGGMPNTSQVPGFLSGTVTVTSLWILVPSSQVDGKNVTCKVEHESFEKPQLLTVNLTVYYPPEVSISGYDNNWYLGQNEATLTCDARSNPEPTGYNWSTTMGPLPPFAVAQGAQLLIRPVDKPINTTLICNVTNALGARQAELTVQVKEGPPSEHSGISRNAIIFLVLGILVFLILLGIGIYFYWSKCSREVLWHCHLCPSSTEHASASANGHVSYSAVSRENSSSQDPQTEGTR

[3] = target: T3, recombinant human Nectin-4 (human, UniProt Q96NY8 32-349); assay: MSD: capture hNectin-4; detection anti-Fc-HRP
T3 sequence (looked up): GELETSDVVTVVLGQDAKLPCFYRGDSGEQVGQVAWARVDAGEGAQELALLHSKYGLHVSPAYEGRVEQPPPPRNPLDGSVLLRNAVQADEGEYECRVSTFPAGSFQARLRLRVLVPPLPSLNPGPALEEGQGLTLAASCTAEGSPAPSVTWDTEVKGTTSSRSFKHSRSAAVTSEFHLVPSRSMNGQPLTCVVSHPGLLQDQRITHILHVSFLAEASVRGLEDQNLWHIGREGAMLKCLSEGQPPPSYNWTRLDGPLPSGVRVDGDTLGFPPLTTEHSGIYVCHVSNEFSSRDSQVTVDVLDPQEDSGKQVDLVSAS

B1: human TIGIT-Fc-LIGHT chimeric protein (Fc fusion)
chain: MMTGTIETTGNISAEKGGSIILQCHLSSTTAQVTQVNWEQQDQLLAICNADLGWHISPSFKDRVAPGPGLGLTLQSLTVNDTGEYFCIYHTYPDGTYTGRIFLEVLESSVAEHGARFQIPSKYGPPCPPCPAPEFLGGPSVFLFPPKPKDQLMISRTPEVTCVVVDVSQEDPEVQFNWYVDGVEVHNAKTKPREEQFNSTYRVVSVLTVLHQDWLSGKEYKCKVSSKGLPSSIEKTISNATGQPREPQVYTLPPSQEEMTKNQVSLTCLVKGFYPSDIAVEWESNGQPENNYKTTPPVLDSDGSFFLYSRLTVDKSRWQEGNVFSCSVLHEALHNHYTQKSLSLSLGKIEGRMDLQLHWRLGEMVTRLPDGPAGSWEQLIQERRSHEVNPAAHLTGANSSLTGSGGPLLWETQLGLAFLRGLSYHDGALVVTKAGYYYIYSKVQLGGVGCPLGLASTITHGLYKRTPRYPEELELLVSQQSPCGRATSSSRVWWDSSFLGGVVHLEAGEKVVVRVLDERLVRLRDGTRSYFGAFMV
notes: Said to exist as a hexamer (dimer of trimers); Glycosylated; also called hTIGIT-Fc-LIGHT; TIGIT-Fc(IgG4)-LIGHT
Q: With B1 as the binder, how does the Kd [1] read?
A: Its Kd is 4.07 nM.

Q: What about the koff [1] of the same binder?
A: Its koff is 0.000103 s⁻¹.

Q: And the kon [1]?
A: Its kon is 25300 M⁻¹ s⁻¹.

Q: What about the EC50 [2] of the same binder?
A: The EC50 was 35.4 nM.

Q: Does B1 bind [3]?
A: Result: binds
